In US20240360189A1 (LUXEMBOURG INSTITUTE OF HEALTH LIH, published 2024):

Target: T1, HER2 on BT474 breast tumour cells (human, UniProt P04626 23-1255)
T1 construct: whole, on cells; also called HER2-positive BT474 cells
Test: flow cytometry, cross-linking of NK92MI and BT474 cells (data not shown)

B1: Z199 scFv anti-NKG2A.C4bp(beta).Fc[knob]/2D3 VHH anti-HER2.C4bp(beta).Fc[hole] bispecific pseudo-IgG (bispecific antibody)
chain 1: RSQVKLQQSGGGLVKPGGSLKLSCAASGFTFSSYAMSWVRQSPEKRLEWVAEISSGGSYTYYPDTVTGRFTISRDNAKNTLYLEISSLRSEDTAMYYCTRHGDYPRFFDVWGAGTTVTVSSGGGGSGGGGSGGGGSQIVLTQSPALMSASPGEKVTMTCSASSSVSYIYWYQQKPRSSPKPWIYLTSNLASGVPARFSGSGSGTSYSLTISSMEAEDAATYYCQQWSGNPYTFGGGTKLEIKRAAASGAGGGGSSGAGGSAGGGGSSGGGGSAGGGGSIQEAPKPECEKALLAFQESKNLCEAMENFMQQLKESGMTMEELKYSLELKKAELKAKLLEPKSCDKTHTCPPCPAPELLGGPSVFLFPPKPKDTLMISRTPEVTCVVVDVSHEDPEVKFNWYVDGVEVHNAKTKPREEQYNSTYRVVSVLTVLHQDWLNGKEYKCKVSNKALPAPIEKTISKAKGQPREPQVYTLPPCRDELTKNQVSLWCLVKGFYPSDIAVEWESNGQPENNYKTTPPVLDSDGSFFLYSALTVDKSRWQQGNVFSCSVMHEALHNHYTQKSLSLSPGK
chain 2: not shown
notes: also called Z199/2D3
binding result: binds
